Experimental data as given in PMC8926151 (Science (New York, N.Y.), 2021).

B1: human GPR158 receptor (receptor, UniProt Q5T848 24-1215, looked up)
chain: ASRDPQGRPDSPRERTPKGKPHAQQPGRASASDSSAPWSRSTDGTILAQKLAEEVPMDVASYLYTGDSHQLKRANCSGRYELAGLPGKWPALASAHPSLHRALDTLTHATNFLNVMLQSNKSREQNLQDDLDWYQALVWSLLEGEPSISRAAITFSTDSLSAPAPQVFLQATREESRILLQDLSSSAPHLANATLETEWFHGLRRKWRPHLHRRGPNQGPRGLGHSWRRKDGLGGDKSHFKWSPPYLECENGSYKPGWLVTLSSAIYGLQPNLVPEFRGVMKVDINLQKVDIDQCSSDGWFSGTHKCHLNNSECMPIKGLGFVLGAYECICKAGFYHPGVLPVNNFRRRGPDQHISGSTKDVSEEAYVCLPCREGCPFCADDSPCFVQEDKYLRLAIISFQALCMLLDFVSMLVVYHFRKAKSIRASGLILLETILFGSLLLYFPVVILYFEPSTFRCILLRWARLLGFATVYGTVTLKLHRVLKVFLSRTAQRIPYMTGGRVMRMLAVILLVVFWFLIGWTSSVCQNLEKQISLIGQGKTSDHLIFNMCLIDRWDYMTAVAEFLFLLWGVYLCYAVRTVPSAFHEPRYMAVAVHNELIISAIFHTIRFVLASRLQSDWMLMLYFAHTHLTVTVTIGLLLIPKFSHSSNNPRDDIATEAYEDELDMGRSGSYLNSSINSAWSEHSLDPEDIRDELKKLYAQLEIYKRKKMITNNPHLQKKRCSKKGLGRSIMRRITEIPETVSRQCSKEDKEGADHGTAKGTALIRKNPPESSGNTGKSKEETLKNRVFSLKKSHSTYDHVRDQTEESSSLPTESQEEETTENSTLESLSGKKLTQKLKEDSEAESTESVPLVCKSASAHNLSSEKKTGHPRTSMLQKSLSVIASAKEKTLGLAGKTQTAGVEERTKSQKPLPKDKETNRNHSNSDNTETKDPAPQNSNPAEEPRKPQKSGIMKQQRVNPTTANSDLNPGTTQMKDNFDIGEVCPWEVYDLTPGPVPSESKVQKHVSIVASEMEKNPTFSLKEKSHHKPKAAEVCQQSNQKRIDKAEVCLWESQGQSILEDEKLLISKTPVLPERAKEENGGQPRAANVCAGQSEELPPKAVASKTENENLNQIGHQEKKTSSSEENVRGSYNSSNNFQQPLTSRAEVCPWEFETPAQPNAGRSVALPASSALSANKIAGPRKEEIWDSFKV
B2: RGS7-Gβ5 signaling complex (complex)
chain 1: MAQGNNYGQTSNGVADESPNMLVYRKMEDVIARMQDEKNGIPIRTVKSFLSKIPSVFSGSDIVQWLIKNLTIEDPVEALHLGTLMAAHGYFFPISDHVLTLKDDGTFYRFQTPYFWPSNCWEPENTDYAVYLCKRTMQNKARLELADYEAESLARLQRAFARKWEFIFMQAEAQAKVDKKRDKIERKILDSQERAFWDVHRPVPGCVNTTEVDIKKSSRMRNPHKTRKSVYGLQNDIRSHSPTHTPTPETKPPTEDELQQQIKYWQIQLDRHRLKMSKVADSLLSYTEQYLEYDPFLLPPDPSNPWLSDDTTFWELEASKEPSQQRVKRWGFGMDEALKDPVGREQFLKFLESEFSSENLRFWLAVEDLKKRPIKEVPSRVQEIWQEFLAPGAPSAINLDSKSYDKTTQNVKEPGRYTFEDAQEHIYKLMKSDSYPRFIRSSAYQELLQAKKK
chain 2: GLHENETLASLKSEAESLKGKLEEERAKLHDVELHQVAERVEALGQFVMKTRRTLKGHGNKVLCMDWCKDKRRIVSSSQDGKVIVWDSFTTNKEHAVTMPCTWVMACAYAPSGCAIACGGLDNKCSVYPLTFDKNENMAAKKKSVAMHTNYLSACSFTNSDMQILTASGDGTCALWDVESGQLLQSFHGHGADVLCLDLAPSETGNTFVSGGCDKKAMVWDMRSGQCVQAFETHESDINSVRYYPSGDAFASGSDDATCRLYDLRADREVAIYSKESIIFGASSVDFSLSGRLLFAGYNDYTINVWDVLKGSRVSILFGHENRVSTLRVSPDGTAFCSGSWDHTLRVWA

Tests used:
[1] = molecular target: the molecule itself; experiment: cryo-EM structure
[2] = molecular target: B1; experiment: cryo-EM structure

Binder | stoichiometry N [1] | stoichiometry N [2]
B1 | 2 | 
B2 |  | 1 RGS7-Gβ5 complex per GPR158 homodimer
